Source: patent US20240174740A1 (EYEPOINT PHARMACEUTICALS, published 2024)

T1: poly-histidine tagged HPTP-β extracellular domain (ECD) 1/2 (human, UniProt P23467 23-730, limits assumed)
T1 construct: domain: extracellular domain (ECD) 1/2; Captured on the Biacore chip through goat anti-His antibody; also called His-tagged ligand HPTP-β 1/2 ECD; not shown: poly-histidine tag
T1 sequence (looked up): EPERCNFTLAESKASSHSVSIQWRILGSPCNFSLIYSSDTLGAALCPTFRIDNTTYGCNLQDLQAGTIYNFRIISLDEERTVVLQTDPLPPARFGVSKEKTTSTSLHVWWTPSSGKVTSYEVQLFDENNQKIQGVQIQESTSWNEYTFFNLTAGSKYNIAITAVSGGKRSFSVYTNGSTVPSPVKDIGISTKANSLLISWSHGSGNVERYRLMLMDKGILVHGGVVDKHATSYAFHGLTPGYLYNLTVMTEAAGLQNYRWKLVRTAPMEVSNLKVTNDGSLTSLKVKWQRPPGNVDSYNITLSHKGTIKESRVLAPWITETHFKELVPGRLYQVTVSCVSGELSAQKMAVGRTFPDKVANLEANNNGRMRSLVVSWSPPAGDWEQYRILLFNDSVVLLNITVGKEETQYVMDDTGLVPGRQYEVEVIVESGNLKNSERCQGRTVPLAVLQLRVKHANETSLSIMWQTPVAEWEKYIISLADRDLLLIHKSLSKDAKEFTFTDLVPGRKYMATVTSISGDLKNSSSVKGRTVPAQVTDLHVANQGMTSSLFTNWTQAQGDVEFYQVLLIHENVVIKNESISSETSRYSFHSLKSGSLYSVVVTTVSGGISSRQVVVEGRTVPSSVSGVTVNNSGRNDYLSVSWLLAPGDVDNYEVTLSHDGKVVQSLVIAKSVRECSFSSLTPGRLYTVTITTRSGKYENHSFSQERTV

B1: HC2:LC1 (antibody, human IgG4 S228P, kappa, V domains shown)
VH: EVQLVESGGGLVQPGGSLRLSCAASGFTFNANAMNWVRQAPGKGLEWVGRIRTKSNNYATYYAGSVKDRFTISRDDSKNSLYLQMNSLKTEDTAVYYCVRDYYGSSAWITYWGQGTLVTVSS
VL: DVVMTQSPSFLSASVGDRVTITCKASQHVGTAVAWYQQRPGKAPKLLIYWASTRHTGVPSRFSGSGSGTEFTLTISSLQPEDFATYFCQQYSSYPFTFGGGTKLEIKR
notes: Human IgG4 (S228P) heavy chain HC2 (VH2) and human kappa light chain LC1 (VL1); also called humanized monoclonal antibody specific for HPTP-β
B2: HC2-AFL:LC1 (bispecific antibody, human IgG4 S228P, kappa)
heavy: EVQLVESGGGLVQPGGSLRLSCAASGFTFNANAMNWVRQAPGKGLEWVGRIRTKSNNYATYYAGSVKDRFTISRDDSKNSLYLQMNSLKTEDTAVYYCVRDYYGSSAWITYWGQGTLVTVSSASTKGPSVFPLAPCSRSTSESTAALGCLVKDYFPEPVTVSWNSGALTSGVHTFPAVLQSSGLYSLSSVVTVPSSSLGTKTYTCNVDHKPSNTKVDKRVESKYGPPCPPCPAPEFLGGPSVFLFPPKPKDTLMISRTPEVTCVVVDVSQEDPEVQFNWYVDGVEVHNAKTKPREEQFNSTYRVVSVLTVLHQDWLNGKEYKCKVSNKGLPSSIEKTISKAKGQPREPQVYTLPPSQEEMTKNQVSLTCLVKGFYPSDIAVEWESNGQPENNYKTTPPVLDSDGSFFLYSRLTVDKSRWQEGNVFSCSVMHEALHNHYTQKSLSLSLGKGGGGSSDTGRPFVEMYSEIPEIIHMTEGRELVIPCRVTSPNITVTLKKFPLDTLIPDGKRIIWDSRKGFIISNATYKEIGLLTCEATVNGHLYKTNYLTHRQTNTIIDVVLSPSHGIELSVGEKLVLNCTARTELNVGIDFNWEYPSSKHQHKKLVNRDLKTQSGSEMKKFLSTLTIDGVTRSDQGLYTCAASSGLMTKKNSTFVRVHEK
light: DVVMTQSPSFLSASVGDRVTITCKASQHVGTAVAWYQQRPGKAPKLLIYWASTRHTGVPSRFSGSGSGTEFTLTISSLQPEDFATYFCQQYSSYPFTFGGGTKLEIKRTVAAPSVFIFPPSDEQLKSGTASVVCLLNNFYPREAKVQWKVDNALQSGNSQESVTEQDSKDSTYSLSSTLTLSKADYEKHKVYACEVTHQGLSSPVTKSFNRGEC
B3: HC2-BRO:LC1 (bispecific antibody, human IgG4 S228P, kappa)
heavy: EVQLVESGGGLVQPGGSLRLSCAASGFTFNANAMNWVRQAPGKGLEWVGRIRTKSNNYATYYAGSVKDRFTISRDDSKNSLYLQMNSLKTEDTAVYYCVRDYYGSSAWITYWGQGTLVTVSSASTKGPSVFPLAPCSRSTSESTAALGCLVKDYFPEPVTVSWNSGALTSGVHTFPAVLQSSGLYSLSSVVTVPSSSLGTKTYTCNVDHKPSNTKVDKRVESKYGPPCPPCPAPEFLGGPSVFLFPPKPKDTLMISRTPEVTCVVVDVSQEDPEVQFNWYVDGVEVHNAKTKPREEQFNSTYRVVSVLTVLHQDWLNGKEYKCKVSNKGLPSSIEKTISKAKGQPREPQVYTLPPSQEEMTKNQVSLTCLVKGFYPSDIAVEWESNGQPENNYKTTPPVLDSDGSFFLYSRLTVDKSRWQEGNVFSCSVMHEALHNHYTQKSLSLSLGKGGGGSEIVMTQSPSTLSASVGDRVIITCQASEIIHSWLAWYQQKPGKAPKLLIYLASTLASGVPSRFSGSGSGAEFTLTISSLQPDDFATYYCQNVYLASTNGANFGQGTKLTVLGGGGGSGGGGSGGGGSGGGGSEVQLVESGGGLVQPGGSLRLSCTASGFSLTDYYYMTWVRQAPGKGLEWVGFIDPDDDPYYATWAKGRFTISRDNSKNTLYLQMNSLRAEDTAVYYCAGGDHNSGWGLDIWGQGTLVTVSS
light: B2 light
B4: HC2-ABI:LC1 (bispecific antibody, human IgG4 S228P, kappa)
heavy: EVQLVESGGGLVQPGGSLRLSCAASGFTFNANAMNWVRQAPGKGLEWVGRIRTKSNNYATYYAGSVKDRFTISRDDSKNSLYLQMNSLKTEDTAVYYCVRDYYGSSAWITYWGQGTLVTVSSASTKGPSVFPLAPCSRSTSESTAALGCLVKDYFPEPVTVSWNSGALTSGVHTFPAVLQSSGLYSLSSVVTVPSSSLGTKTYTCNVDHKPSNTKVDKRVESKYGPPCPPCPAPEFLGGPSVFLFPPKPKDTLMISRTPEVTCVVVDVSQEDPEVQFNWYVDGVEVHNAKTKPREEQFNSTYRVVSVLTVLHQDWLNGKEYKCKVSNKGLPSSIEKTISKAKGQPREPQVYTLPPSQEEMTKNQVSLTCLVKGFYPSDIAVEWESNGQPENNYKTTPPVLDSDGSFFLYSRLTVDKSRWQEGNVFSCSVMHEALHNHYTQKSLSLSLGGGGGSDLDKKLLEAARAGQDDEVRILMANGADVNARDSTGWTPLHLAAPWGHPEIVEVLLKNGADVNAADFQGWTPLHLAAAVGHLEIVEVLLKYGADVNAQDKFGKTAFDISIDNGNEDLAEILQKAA
light: B2 light
B5: HC2-RAN:LC1 (bispecific antibody, human IgG4 S228P, kappa)
heavy: not shown
light: B2 light
notes: also called HC2-RBZ:LC1; tetravalent bispecific antibody with ranibizumab-derived scFv on the heavy chain C-termini
B6: HC2:LC1-AFL (bispecific antibody, human IgG4 S228P, kappa)
heavy: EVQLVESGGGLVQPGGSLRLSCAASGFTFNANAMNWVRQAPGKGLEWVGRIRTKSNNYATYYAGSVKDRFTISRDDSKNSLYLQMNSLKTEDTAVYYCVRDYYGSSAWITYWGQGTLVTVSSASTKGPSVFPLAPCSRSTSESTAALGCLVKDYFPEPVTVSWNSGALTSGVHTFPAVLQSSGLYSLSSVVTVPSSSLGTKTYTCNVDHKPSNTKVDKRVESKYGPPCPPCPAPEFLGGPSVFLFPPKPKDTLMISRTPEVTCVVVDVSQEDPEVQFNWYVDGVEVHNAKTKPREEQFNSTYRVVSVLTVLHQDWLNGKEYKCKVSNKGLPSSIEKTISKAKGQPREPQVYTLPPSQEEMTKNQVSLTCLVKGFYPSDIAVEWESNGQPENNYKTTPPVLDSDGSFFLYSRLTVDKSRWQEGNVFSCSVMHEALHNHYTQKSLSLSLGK
light: DVVMTQSPSFLSASVGDRVTITCKASQHVGTAVAWYQQRPGKAPKLLIYWASTRHTGVPSRFSGSGSGTEFTLTISSLQPEDFATYFCQQYSSYPFTFGGGTKLEIKRTVAAPSVFIFPPSDEQLKSGTASVVCLLNNFYPREAKVQWKVDNALQSGNSQESVTEQDSKDSTYSLSSTLTLSKADYEKHKVYACEVTHQGLSSPVTKSFNRGECGGGGSSDTGRPFVEMYSEIPEIIHMTEGRELVIPCRVTSPNITVTLKKFPLDTLIPDGKRIIWDSRKGFIISNATYKEIGLLTCEATVNGHLYKTNYLTHRQTNTIIDVVLSPSHGIELSVGEKLVLNCTARTELNVGIDFNWEYPSSKHQHKKLVNRDLKTQSGSEMKKFLSTLTIDGVTRSDQGLYTCAASSGLMTKKNSTFVRVHEK
B7: HC2:LC1-BRO (bispecific antibody, human IgG4 S228P, kappa)
heavy: not shown
light: DVVMTQSPSFLSASVGDRVTITCKASQHVGTAVAWYQQRPGKAPKLLIYWASTRHTGVPSRFSGSGSGTEFTLTISSLQPEDFATYFCQQYSSYPFTFGGGTKLEIKRTVAAPSVFIFPPSDEQLKSGTASVVCLLNNFYPREAKVQWKVDNALQSGNSQESVTEQDSKDSTYSLSSTLTLSKADYEKHKVYACEVTHQGLSSPVTKSFNRGECGGGGSEIVMTQSPSTLSASVGDRVIITCQASEIIHSWLAWYQQKPGKAPKLLIYLASTLASGVPSRFSGSGSGAEFTLTISSLQPDDFATYYCQNVYLASTNGANFGQGTKLTVLGGGGGSGGGGSGGGGSGGGGSEVQLVESGGGLVQPGGSLRLSCTASGFSLTDYYYMTWVRQAPGKGLEWVGFIDPDDDPYYATWAKGRFTISRDNSKNTLYLQMNSLRAEDTAVYYCAGGDHNSGWGLDIWGQGTLVTVSS
B8: HC2:LC1-ABI (bispecific antibody, human IgG4 S228P, kappa)
heavy: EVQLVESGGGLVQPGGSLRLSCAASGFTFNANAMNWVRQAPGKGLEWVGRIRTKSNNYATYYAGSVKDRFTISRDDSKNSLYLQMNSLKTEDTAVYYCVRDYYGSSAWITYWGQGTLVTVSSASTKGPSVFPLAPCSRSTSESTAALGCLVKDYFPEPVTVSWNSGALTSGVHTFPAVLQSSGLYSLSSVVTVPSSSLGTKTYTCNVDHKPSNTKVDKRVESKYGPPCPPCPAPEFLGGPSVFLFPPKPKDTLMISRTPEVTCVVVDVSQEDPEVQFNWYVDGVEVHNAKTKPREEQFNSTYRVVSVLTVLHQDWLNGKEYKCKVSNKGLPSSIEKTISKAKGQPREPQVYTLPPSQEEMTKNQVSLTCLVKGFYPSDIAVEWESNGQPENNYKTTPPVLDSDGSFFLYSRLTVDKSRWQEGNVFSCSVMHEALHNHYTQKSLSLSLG
light: DVVMTQSPSFLSASVGDRVTITCKASQHVGTAVAWYQQRPGKAPKLLIYWASTRHTGVPSRFSGSGSGTEFTLTISSLQPEDFATYFCQQYSSYPFTFGGGTKLEIKRTVAAPSVFIFPPSDEQLKSGTASVVCLLNNFYPREAKVQWKVDNALQSGNSQESVTEQDSKDSTYSLSSTLTLSKADYEKHKVYACEVTHQGLSSPVTKSFNRGECGGGGSDLDKKLLEAARAGQDDEVRILMANGADVNARDSTGWTPLHLAAPWGHPEIVEVLLKNGADVNAADFQGWTPLHLAAAVGHLEIVEVLLKYGADVNAQDKFGKTAFDISIDNGNEDLAEILQKAA
notes: The expressed entry minus its signal peptide is used here
B9: HC2-AFL:LC1-AFL (bispecific antibody, human IgG4 S228P, kappa)
heavy: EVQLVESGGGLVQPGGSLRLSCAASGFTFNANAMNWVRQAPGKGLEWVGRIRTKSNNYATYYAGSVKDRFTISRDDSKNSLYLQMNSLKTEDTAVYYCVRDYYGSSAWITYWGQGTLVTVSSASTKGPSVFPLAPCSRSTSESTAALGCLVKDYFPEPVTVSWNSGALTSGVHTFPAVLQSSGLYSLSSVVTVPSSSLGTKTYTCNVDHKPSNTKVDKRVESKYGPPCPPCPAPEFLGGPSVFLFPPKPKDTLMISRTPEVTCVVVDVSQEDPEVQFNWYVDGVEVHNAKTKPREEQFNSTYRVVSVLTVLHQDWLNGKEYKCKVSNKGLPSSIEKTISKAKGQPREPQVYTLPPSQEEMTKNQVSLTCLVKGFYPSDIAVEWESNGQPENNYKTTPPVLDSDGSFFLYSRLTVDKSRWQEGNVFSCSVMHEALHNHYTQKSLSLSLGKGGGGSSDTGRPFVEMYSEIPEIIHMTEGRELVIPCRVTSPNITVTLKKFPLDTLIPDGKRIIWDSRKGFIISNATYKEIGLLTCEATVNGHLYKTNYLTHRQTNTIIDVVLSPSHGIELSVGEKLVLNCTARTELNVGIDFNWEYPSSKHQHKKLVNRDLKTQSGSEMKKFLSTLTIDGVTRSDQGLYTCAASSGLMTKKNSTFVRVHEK
light: B6 light
B10: HC2-BRO:LC1-BRO (bispecific antibody, human IgG4 S228P, kappa)
heavy: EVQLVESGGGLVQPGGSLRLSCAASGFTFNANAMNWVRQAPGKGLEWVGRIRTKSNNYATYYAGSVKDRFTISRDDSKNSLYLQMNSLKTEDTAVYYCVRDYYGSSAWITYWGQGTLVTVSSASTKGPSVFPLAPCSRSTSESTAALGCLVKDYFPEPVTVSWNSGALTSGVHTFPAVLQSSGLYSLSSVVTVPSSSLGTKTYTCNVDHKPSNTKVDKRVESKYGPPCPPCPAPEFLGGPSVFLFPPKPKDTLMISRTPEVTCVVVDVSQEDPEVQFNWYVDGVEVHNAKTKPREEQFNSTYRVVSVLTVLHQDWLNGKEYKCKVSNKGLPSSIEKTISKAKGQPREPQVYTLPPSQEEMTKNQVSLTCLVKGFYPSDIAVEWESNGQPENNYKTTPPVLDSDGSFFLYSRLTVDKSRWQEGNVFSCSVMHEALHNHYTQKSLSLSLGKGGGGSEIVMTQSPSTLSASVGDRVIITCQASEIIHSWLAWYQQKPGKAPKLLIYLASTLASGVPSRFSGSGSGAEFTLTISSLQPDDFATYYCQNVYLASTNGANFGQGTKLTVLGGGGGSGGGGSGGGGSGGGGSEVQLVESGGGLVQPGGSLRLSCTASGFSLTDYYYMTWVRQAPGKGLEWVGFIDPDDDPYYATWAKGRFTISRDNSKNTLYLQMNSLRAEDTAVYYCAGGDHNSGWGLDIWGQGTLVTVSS
light: B7 light
B11: HC2-ABI:LC1-ABI (bispecific antibody, human IgG4 S228P, kappa)
heavy: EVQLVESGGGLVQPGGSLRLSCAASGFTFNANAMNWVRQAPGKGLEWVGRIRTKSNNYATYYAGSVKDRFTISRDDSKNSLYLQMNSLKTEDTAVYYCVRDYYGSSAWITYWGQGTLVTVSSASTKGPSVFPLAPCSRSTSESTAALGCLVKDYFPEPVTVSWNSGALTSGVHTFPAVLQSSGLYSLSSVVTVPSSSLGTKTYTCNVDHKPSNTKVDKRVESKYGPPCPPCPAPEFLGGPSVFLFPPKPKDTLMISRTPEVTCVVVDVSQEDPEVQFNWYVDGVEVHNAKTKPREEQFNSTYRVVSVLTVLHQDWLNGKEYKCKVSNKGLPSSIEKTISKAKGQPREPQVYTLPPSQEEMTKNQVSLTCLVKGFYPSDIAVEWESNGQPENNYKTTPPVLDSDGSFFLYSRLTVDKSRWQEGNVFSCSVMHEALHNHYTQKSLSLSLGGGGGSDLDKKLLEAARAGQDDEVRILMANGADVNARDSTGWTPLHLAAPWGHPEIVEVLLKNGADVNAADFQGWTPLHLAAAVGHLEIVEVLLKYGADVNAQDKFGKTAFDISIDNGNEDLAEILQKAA
light: B8 light

Tests used:
VEGF [1] = molecular target: T2, VEGF (UniProt P15692-4 27-191, limits assumed); assay: Biacore SPR, scouting; antibody immobilised on CM5 chip, VEGF as analyte
T2 construct: also called vascular endothelial growth factor
Description: (§1) For analysis of binding of the antibodies to VEGF, the antibodies were immobilized on the surface of the chip by direct immobilization using EDC/NHS coupling chemistry on flow cell 2 of the CM5 chip. Unoccupied sites were blocked with 1M ethanolamine. The analyte (VEGF) was flowed over the chip at a single analyte concentration at a time. The binding of analyte to the ligand was monitored in real time to obtain on (kₐ) and off (kd) rates. The equilibrium constant (KD) was calculated from the observed kₐ and kd.
(§2) Chi square analysis was carried out between the actual sensorgram and the sensorgram generated from the BIAnalysis software to confirm the accuracy of the analysis; values of 1-2 were considered accurate and below 1 highly accurate.

[2] = molecular target: T1, poly-histidine tagged HPTP-β …; assay: Biacore SPR, scouting at 10 nM analyte; His-tagged HPTP-β 1/2 ECD captured by anti-His, antibody as analyte
Description: (§3) The assay buffer contained 10 mM HEPES buffer (pH 7.4), 150 mM NaCl, 3 mM EDTA, and 0.05% P20 (polyoxyethylenesorbitan). […] The conjugation buffer contained 10 mM sodium acetate buffer (pH 5). A flow rate of 5 μL/minute was used for capturing ligand. A flow rate of 30 μL/minute was used for kinetic analysis.
(§4) For analysis of binding of antibodies to HPTP-β, poly-histidine tagged HPTP-β extracellular domain (ECD) 1/2 was immobilized on a chip surface via anti-His antibodies. Goat anti-His antibody was first immobilized on the surface of the chip by direct immobilization using EDC/NHS (N-ethyl-N′-(3-dimethyl aminopropyl carbodiimide)/N-hydroxy succinamide) coupling chemistry on flow cell 2 of the CM5 (Carboxymethylated dextran coated) chip. Unoccupied sites were blocked with 1M ethanolamine. The His-tagged ligand HPTP-β 1/2 ECD was captured at a response unit (RU) of 50. The analyte (antibody) was flowed over the chip at a single analyte concentration at a time. The binding of analyte to the ligand was monitored in real time to obtain on (kₐ) and off (kd) rates. The equilibrium constant (KD) was calculated from the observed kₐ and kd.
as §2

[3] = molecular target: T1, poly-histidine tagged HPTP-β …; assay: Biacore SPR, full kinetics at 0-10 nM analyte; His-tagged HPTP-β 1/2 ECD captured by anti-His, antibody as analyte
Description: as §3, §4
(§5) Chi square analysis was carried out between the actual sensorgram and the sensorgram generated from the BNAnalysis software to confirm the accuracy of the analysis; values of 1-2 were considered accurate and below 1 highly accurate.

VEGF [4] = molecular target: T2, VEGF; assay: Biacore SPR, scouting at 10 nM analyte; antibody immobilised on CM5 chip, VEGF as analyte
Description: as §3, §1, §2

VEGF [5] = molecular target: T2, VEGF; assay: Biacore SPR, full kinetics at 0-10 nM analyte; antibody immobilised on CM5 chip, VEGF as analyte
Description: as §3, §1, §5

[6] = molecular target: T1, poly-histidine tagged HPTP-β …; assay: Biacore SPR, scouting at 10 nM analyte; His-tagged HPTP-β 1/2 ECD captured by anti-His, antibody as analyte; scouting experiment at a single ligand concentration (Table 46), not full kinetics
Source text: as §4, §2

T2 sequence (P15692 other isoform, or with tags, fused parts or gaps limits assumed): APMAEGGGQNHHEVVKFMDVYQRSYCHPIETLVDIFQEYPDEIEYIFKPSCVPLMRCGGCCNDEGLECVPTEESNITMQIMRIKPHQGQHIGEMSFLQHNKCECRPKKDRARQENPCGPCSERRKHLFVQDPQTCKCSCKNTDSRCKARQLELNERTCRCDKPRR

| Binder | binding result (VEGF [1]) | Kd [2] | Kd [3] | Kd (VEGF [4]) | Kd (VEGF [5]) | Kd [6] |
| --- | --- | --- | --- | --- | --- | --- |
| B1 | no binding (tested: 10 nM of analyte) | 0.0732 nM | 0.121 nM |  |  |  |
| B2 |  | 0.32 nM | 0.219 nM | 350 pM | 46.3 pM |  |
| B3 |  | 0.325 nM | 0.154 nM | 0.112 pM | 0.218 pM |  |
| B4 |  | 0.122 nM | 0.00103 nM | 0.11 pM | 0.04 pM |  |
| B5 |  |  |  |  |  | 0.586 pM |
| B6 |  | 0.467 nM |  | 825 pM |  |  |
| B7 |  | 0.309 nM |  | 0.0351 pM |  |  |
| B8 |  | 0.061 nM |  | 519 pM |  |  |
| B9 |  | 0.0694 nM |  | 557 pM |  |  |
| B10 |  | 0.0035 nM |  | 1.79 pM |  |  |
| B11 |  | 0.205 nM |  | 680 pM |  |  |
